This is an account of results in the NTF2 design screens of Basanta et al. (2020).

A short description of this series: protease stability score; higher = more stable; yeast display proteolysis, trypsin and chymotrypsin.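 Further: relative to predicted unfolded state with 0 unfolded-like and 1 meaning tenfold more protease.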
In the case of “HEIDEWSEEWKHELIHNLRTGDEHRLKELADPHTRIIIDGREIHGMDFALKLIHKRVMEMRHKEFHIRRIDHQGEKIVMDVEVRVNFNGREDSVNFRIISEKFNGRWIIHYITLI”, the protease stability score came to 1.49. Take “HEIEEEVENAVRLISHLLLTGDEETLHDLADPEMRTIVGDKHLHGREMWSEVIRRLGVDVLVIKEIRVQGDWIHSDGVLLVNGQERDAKIHVRKVNGKWVITTFQLK”: the protease stability score was found to be 1.8. Sequence “HEIEEIARHINNIWEERSRTGDFRHFTTLLDPHARIDINGVELHGRELWMSRVYHHFQSHGIEYSVHTKHIEVFDGRVHLHGELFFHFNGVDITIRTHHTMRKVDGRWFVEQIIVH” yielded a protease stability score of 0.468. Regarding “HEIHELLKRVVDMLRTLWETGDEETWNSLADPNTKFVIGDKEVVGMEEITRIFLHERERADHMKFEVRRIRTVGDKADSHGHLRLDIGNKHVTHEIDLHVRVINGRIKQVELRIH”, the protease stability score was 1.33. For the sequence “HEKEHRLHEIMELWLKLVQTGNEEILMELADPHTKLDIGDKHLHGRELTSRFLLHMRIEDLTIKRIDVQGDYAHIDGHVIGVINGRRFISDRHIHLDIYNGKHRRVEVRIE”, the protease stability score turned out to be 1.01.

“HEKEKLEKDIWRLLVEWLETGNEHEFEKFMDPDARLFEDVDGKELRIHGREIAMEILHHLWRDFGVDHLVLKKASIIDGVVHLDVILDVNGRRIDTRIIFVIINGRIHSTHIHIR” showed a protease stability score of 1.52.

Turning to “HEKKEAYDYMVEILWKAMHTGDEKTLKHLFDPHTKVTQGDFEIHGMEQFSEHLKHARYRRVRVKFEDSHTQGEKVRMHTRLEFEGEIDGKRDTLEFETHQIVTKIDGRWVFESLEIE”, the protease stability score was found to be 0.7.

“HELDELTERTVKLFRDSSYTGDEDTLEDLADPNYRFVIDGKILMGREWVTRSLREWRVEDFRIHSVDLQGDKAHVDITVKGKFNGRFRTTRQEMVMMKVDGVWYFHSLTIR” came in with a protease stability score of 0.521. The same measure for “HELEEEAKRAADIWFENLLTGDFDSLRKLVDPHVRMNYNGQEYHGWEEVIRFWKEYLDKVKNLQFHRHHVDVQGEKTTIDTRHIINGRSSEVEIRLLVINGRIQSNEVHEN”: 1.14; for “HELEERLEKWFKKFLHNMMTGDEDKLIHLADPHAKFRIDGVESHGRENWSRYVEERHLKLGLENIHVNVHRVHVQGDKIDMTGTLEINGQRVDFHIHIEVVDGRIKRLIIIIE”: 0.732; for “HELEHELEKFMQWIIEFLETGDEDALSTLLDPNVRYVINGQNLHGRSLLITTLHRLKEEIRVHWKIRDLKIQGDKAHSDGRFTIIVNGRKHSVDSHINVTIVDGRIHRVEIELR”: 1.7.

As to “HELKEELDEKLEFILRVFRTGNEERWRRLFDPEVRIEVGDKEIHGMDEALHFASHMRVEFKEMNFEDIRIVGEWVTLHIRVRGTIVYNGKKVERSMHIIIIILKIDGKWHIHEFRIH”, the protease stability score turned out to be 1.44. Sequence “HELLEHVKKIIEMWNKLLHTGDEETLNKLLDPRVRIHVNGRELIGREAVETELREIRFEITYTHVKEVDVVGDKVHVNTLLDGEFRIGNFVIRTRTDARLHLLKVDGKWLLESLHVT” returned a protease stability score of 1.24. Under “HELLEIIHRVAQMIYENLLTGNEDLFEHLADPNRRLLVNGVDLVGWERVVKWEKEMRIHDHRLRDESMTRQGDKAFVHHRTELRGDINGREIHTETKLNIVIRKIDGKWIVERIEVRID” stands 0.81; under “HELLKLVEEMARITVKLFMTGDWKTFKHLADPHVREIINGRTVHGMEKVVEHRKEFKEELWIESITIHDVEVQGEKAHLNTKLIGHVNGREVEVEIYVNIEIINGRWNLVEIDIR”, 1.76. Consider “HELQEEATRFIKEFQEAVRTGDWRLWKKQLDPHVRLDIDGRHYHGRDIVLEFLRELEDKMGIERENVHIEHIDFQGDKVIVHSKEHGIVNGQRFDDKSSSIVLKINGQWTLHSVKIR”, for which the protease stability score is 1.19. Under “HELVEEAITMWKEMLVDELTGDEKKTSQNLDPNYKMVIDGQEIHGMEEWSRFLKEIRLHHEDFHVKDARVIDGRVKIDGHIKGTLEINGKRTRTETDVHIILIKINGRWVTHSVHFK” stands 1.24; under “HEMEEMEELAFRLIEESIRTGDFTTLEDLFDPDTRIIIGDKDLHGREALRHLRERIDHLKELRVHRRTFIGDWLDMNLHMTGNVNGVEHRRDVRFIIWKINGQWRIHSVYEV”, 1.38; under “HEMKEESEKAVRLMVHLFKTGDEETIYRMADPNARFFFDGRHIHGMDHVFREVLRLEREYGVKHFELRDMELRIFDGRIFLHIDGVEEFNGRRLETHLHFESRKIDGRWHFQSESIVLR”, 0.317. Under “HEMQEEAHIATELIIDTFKTGDEKKMRELFDPTPRLHQGDKRFHGREEVVHIISERIHRFGFNHIEVKTVRVQGDFIIVHGEKDVNGQRVEVILHIWKYDGRWEVHRIEIR” stands 1.23; under “HENEEAAEHIFELFLDSLRTGDPDVVERLLDPHVKLDINGVEFHGREEAVHILMEEWKRLGIDHFEIKRIELRVYNGVVHIEIDSRTQVNGQKHHTKYRIIVIKINGRWHVNLLYIYIE”, 2.12. For the sequence “HENEENETEAIRLFLRVMLTGDEHDLKRMFDPDMKVEIGDKRIVGRERVLEHWLHTAERFGLTNIYLQLDHVRVINGRVDIDFHVRFNGRTERVHLHILKINGKWIVEHLEVR”, the protease stability score turned out to be 1.36. Take “HENEHRMKEFVREVFDLRRTGNWEQLQELFDPNVRIEIGDKRYHGWENLSHFLLHARQDMHIEVTSVEVQGDKIIADGRLEYTLRVGDKDVTYDHRTIIIAHKFNGKWFFTTERIK”: the protease stability score is 1.33. Under “HEQDEAWDVINRDLAQSIETGDEHTERELLDPNVRIDFDGVKLHGRDEWHDFVRKELEHLGVDRIDIRIEIHNSKYQGEKVDSDTELKIRYGDKHVRIKTRLILHKIDGRWLVKSIQIN” stands 1.1.

In turn, “HEQEKFVREYFELWVRAFLTGDEDTILDMMDPDVRIIYGDKTVVGWKELHKFLKRVDHARIKFEFRNTRYDENEAEVDGHRIVHLFFDGKIFDITTQIHVHMVKIDGVWTMKTIVNK” had a protease stability score of 1.55. Regarding “HEREEWSENAFRMILRSLMTGDERTLYELADPNVRLDVNGQDYHGREDFLHFYTHFLFRADHVELILRRERPVGDKLELDGELVSRVGDKTHHVEVRIVLWKVNGRWLIHSVYII”, the protease stability score worked out at 1.81. Under “HEREHLLERMLKLLLELLLTGDEDTWKHYLDPHTRVIFNGREEHGRTAFERFVKELGVDHIEFKHVEIRHIGDKVHLHVDARVEINGRKHNMHLHIHLRKIDGQWEVKEFRIEIE” stands 1.27; under “HERERMLEVALRLFIETMRTGDEKITSELADPNVKIHIGDKTDHGRESFTNFFEEMGADHVNVHDVEVQGDKVKTDIRIQIGDKMVESILYVKKVNGRWLIRSIEIR”, 1.05; under “HERQKEMETLVELFDEEWLTGNEQTHRRLADPHMKLDVNGKTYHGWKQYNKHLQDFLKRIDHVELEIKRIRVQGEYAHSDGTLRMHYNGVTEERNVHVEINIIDGRLKSVHLKVE”, 1.1. Under “HESDKLVDEIFKTFIHAIVTGDEETLKTMLDPNTKFILIYGDKYHEHHGWRDLIRWLREIRIREIIHRHVENQGDKVHHEGELRGEFNGKEIRTEIHIHMVVVNGKLRRMEWEIK” stands 2.07. The same measure for “HESEELAKHFSKIMDDLIRTGDEEHFDRLLDPNVKLDVNGRTIHGRERVSEIIHEKNKELGIDQIHVRKQDEHIIGDKLILHIEIIYGDKRIELIIITRKINGKWRIESVELREH”: 0.876; for “HESEEYAHRVSKDFDRAMRTGDWLRLLELIDPNARLHVGEFHVHGMEDIEKWIRHFLHRVDVIHIRVRDMRVQGEKVDVDYEIEERQGDKRRHYESRTIILKIDGKWHIKEIHIH”: 1.14; for “HESHEFVKEAFRLWVESLRTGDEKTLSRYADPHVRVTYDGREFHGRDWYVKLMDELRVNDVKLDDVNVQGEKIDIEGTIDGQVNGQDREIKVRLHAEKINGRWVNKKIQID”: 1.11. On to “HESHNRVERILEEFFKAVETGDWRVLHELLDPHVRLDVDGRDHHGREDFSRFMKEIRVEEFRVTHLQIQGDKANVQSHRVGTYNGKRQEIRTWIHITKIDGQWYITEVTME”, for which the protease stability score came out at 0.544.
